Earlier results as cited in paper PMC8112298.

Target: protein Z (Homo sapiens) (UniProt P22891)
UniProt P22891, sequence (P22891 41-400): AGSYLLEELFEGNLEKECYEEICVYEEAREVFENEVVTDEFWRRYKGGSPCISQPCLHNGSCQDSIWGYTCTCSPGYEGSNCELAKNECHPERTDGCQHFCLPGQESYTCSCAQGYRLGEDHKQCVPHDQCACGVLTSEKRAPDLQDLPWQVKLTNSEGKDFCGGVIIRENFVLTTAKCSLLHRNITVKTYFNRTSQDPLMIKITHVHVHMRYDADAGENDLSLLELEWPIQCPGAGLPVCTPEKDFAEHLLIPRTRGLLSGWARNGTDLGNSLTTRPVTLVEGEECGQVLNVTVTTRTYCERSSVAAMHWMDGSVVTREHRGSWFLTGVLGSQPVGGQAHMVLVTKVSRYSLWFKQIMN

Question: Which Kd does the source give for ZPI (from UniProt Q9UK55) here?
Answer: The Kd was 10 nM.
